For one molecule, IC50 results are on record in US20090011464A1 (published 2009).

The target in this assay is T1, human α4β7 integrin (human, UniProt P13612 34-1032; P26010 20-798).
T1 construct: whole, on cells; also called α4β7 integrin on HuT 78 cells; α4β7 on RPMI 8866 cells
The assay is described as follows: inhibition of adhesion of α4β7+ RPMI 8866 cells to plate-bound human MAdCAM-1-Ig chimera; antibody varied from 15.0 to 0.00075 µg/ml.

Procedure: Wells were then washed once with wash buffer (50 mM Tris HCl, 0.14 M NaCl, 1 mM MnC12, pH 7.2) using a microplate autowasher (Bio-Tek Instruments, Winooski, Vt.) and blocked for 1.5 hrs at 37° C. with 100 μL of 10% FBS diluted in PBS.
BCECF (2′,7′-bis-(2-carboxyethyl)-5-(and 6)-carboxy fluorescein, acetoxymethyl ester; Molecular Probes, Inc., Eugene, Oreg.) was reconstituted to 50 μg/ml in DMSO and added to the cell suspension to a final dilution of 1:500. After incubating for 30 minutes at 37° C., cells were then washed in assay buffer (HBSS with 2% Fetal Bovine Serum, 25 mM HEPES, penicillin/streptomycin, pH 7.2), and 50,000 cells were added to each well of a V-bottom 96-well plate. […] The plate coated with MAdCAM-1 chimera was washed to remove blocking buffer, and these fluorescently labeled RPMI 8866 cells were then transferred to each well. The plate was placed on a platform shaker (New Brunswick Scientific Co., Inc., Edison, N.J.) at 40 RPM for 30 minutes at room temperature wrapped in aluminum foil. Unbound cells were removed by a single wash step and fluorescence subsequently measured (excite at 485 nm, read at 535 nm) with a Fluorescence Concentrator Analyzer (IDEXX Laboratories, Inc., Westbrook, Me.) before and after washing.

B1: murine Act-1 monoclonal antibody (antibody, mouse IgG1, V domains shown)
VH: QVQLQQPGAELVKPGTSVKLSCKGYGYTFTSYWMHWVKQRPGQGLEWIGEIDPSESNTNYNQKFKGKATLTVDISSSTAYMQLSSLTSEDSAVYYCARGGYDGWDYAIDYWGQGTSVTVSS
VL: DVVVTQTPLSLPVSFGDQVSISCRSSQSLAKSYGNTYLSWYLHKPGQSPQLLIYGISNRFSGVPDRFSGSGSGTDFTLKISTIKPEDLGMYYCLQGTHQPYTFGGGTKLEIK
notes: Mouse IgG1/kappa from the Act-1 hybridoma (ATCC PTA-3663); also called mAb Act-1; mouse Act-1 antibody
For orientation: IC50 means the midpoint of a concentration-inhibition curve. Low values mean greater potency in that assay, high ones weaker potency in that assay. B1 returned an IC50 of 1.8 ng/mL.
